This note sets out measurements from US20080027145A1 (published 2008).

The target in experiment [1] is T1, human Bcl-2 ΔC22 (human, UniProt P10415 1-217).
T1 construct: Recombinant, bacterial, N-terminal HexaHis fusion; hydrophobic C-terminus removed; also called hBcl-2
Description: Biacore solution competition against immobilised mouse wtBimBH3. The source says: (§1) The baseline response (control channel) was subtracted to obtain the absolute binding response. […] Theoretically, IC50=[A]/2+KD, where [A] is the analyte concentration.
(§2) To assess if other BH3 peptides bind pro-survival proteins similarly, we directly compared their binding affinities in solution using a competitive binding assay. […] As the IC50 values reflect relative binding affinities (see Experimental Procedures), we used this assay to compare the binding affinities of eight BH3 peptides (Table 3) to the five pro-survival proteins.

Experiment [2] addresses T2, human Bcl-xL ΔC24 (human, UniProt Q07817 1-209).
T2 construct: Expressed as GST fusion and cleaved off the glutathione column; also called hBcl-xL ΔC24
The description is as above.
From the text: as §1, §2

Experiment [3] addresses T3, human Bcl-w ΔC29 (C29S A128E) (human, UniProt Q92843 1-164).
T3 construct: range 1-164; residues 1-209), which are those of Bcl-xL; also called hBcl-w
T3 sequence: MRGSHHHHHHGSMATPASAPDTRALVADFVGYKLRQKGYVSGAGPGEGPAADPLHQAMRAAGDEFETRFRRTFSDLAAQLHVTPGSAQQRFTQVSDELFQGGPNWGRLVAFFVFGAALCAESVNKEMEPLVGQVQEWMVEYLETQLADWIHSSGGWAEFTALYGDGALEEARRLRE
The experiment is described as above.
From the text: as §1, §2

Experiment [4] concerns the target T1, human Bcl-2 ΔC22. The experiment can be described thus: solution competition on Biacore.
Experiment [5] concerns the target T2, human Bcl-xL ΔC24. The experiment can be described thus: solution competition on Biacore.
Experiment [6] deals with T3, human Bcl-w ΔC29 (C29S A128E). The experiment can be described thus: solution competition on Biacore.
Experiment [7] addresses T4, FLAG-tagged mouse Mcl-1 (full-length) (mouse, UniProt P97287 1-331).
T4 construct: whole, on cells; Full-length, expressed in 293T cells, precipitated from lysates; also called FLAG-Mcl-1; Mcl-1 (in cells)
Description: co-immunoprecipitation from 293T lysates, 35S fluorography (D) and immunoblot of the same filters (E) [E]. From the text:
(§3) Equivalent ³⁵S-labeled lysates harvested from 293T cells were immunoprecipitated with antibodies to the HA, FLAG (FL) or control (C) tags.
(§4) The maintenance, transfection and metabolic labeling of the human embryonic kidney (HEK) 293T cells with ³⁵S-methionine/cysteine (NEN) as well as co-immunoprecipitation have been described (Huang et al., Supra; Moriishi et al., Proc Natl Acad Sci USA 96:9683-9688, 1999; O'Conner et al., Supra). Briefly, equivalent TCA-precipitable lysates were immunoprecipiated using the mouse monoclonal antibodies to HA (HA.11; CRP), FLAG (M2; Sigma) and control Glu-Glu (CRP) tags. The proteins were resolved by SDS:PAGE, transferred onto nitrocellulose membranes and detected by fluorography (Amplify; Amersham Biosciences).

Experiment [8] has as its target T2, human Bcl-xL ΔC24. The experiment can be described thus: SPR direct binding, protein over immobilised NoxaBH3. The method, then: Affinity measurements were performed at room temperature on a Biacore 3000 biosensor (Biacore) with HBS (10 mM HEPES pH 7.2, 150 mM NaCl, 3.4 mM EDTA, 0.005% Tween 20) as the running buffer. […] Residual bound proteins were desorbed with 50 mM NaOH or 6 M GuHCl (pH 7.2), followed by two washes with running buffer. Binding kinetics were derived from sensorgrams, following subtraction of baseline responses, using BIA evaluation software (version 3, Biacore) (Wilson-Annan et al., Supra).

The target of experiment [9] is T2, human Bcl-xL ΔC24. Description: solution competition on Biacore, immobilised m wtBimBH3.
From the text: as §1

The target of experiment [10] is T2, human Bcl-xL ΔC24. The experiment can be described thus: solution competition on Biacore (FIG. 9C).
From the text: as §1

Experiment [11] has as its target T2, human Bcl-xL ΔC24. The experiment can be described thus: solution competition on Biacore (IC50 ratio).
Experiment [12] concerns the target T1, human Bcl-2 ΔC22. The experiment can be described thus: Biacore solution competition against immobilised mouse wtBimBH3.
From the text: as §1
The source holds these as a separate data set.

Experiment [13] concerns the target T3, human Bcl-w ΔC29 (C29S A128E). The description is as above.
From the text: as §1
The source holds these as a separate data set.

For experiment [14] the target is unchanged. Description: solution competition on Biacore (FIG. 9C).
From the text: as §1

Experiment [15] has as its target T5, FLAG-tagged human Bcl-2 (full-length) (human, UniProt P10415 1-239).
T5 construct: whole, on cells; Full-length, expressed in 293T cells, precipitated from lysates; also called FLAG-Bcl-2; Bcl-2 (in cells)
Description: co-immunoprecipitation from 293T lysates, 35S fluorography (F) and immunoblot of the same filters (G) [G].
From the text: as §3, §4

The target in experiment [16] is T6, FLAG-tagged human Bcl-xL (full-length) (human, UniProt Q07817 1-233).
T6 construct: whole, on cells; Full-length, expressed in 293T cells, precipitated from lysates; also called FLAG-Bcl-xL; Bcl-xL (in cells)
The description is as above.
From the text: as §3, §4

Experiment [17] deals with T2, human Bcl-xL ΔC24. Description: Biacore solution competition against immobilised mouse wtBimBH3. The source says:
FIG. 1 is a graphical representation showing competitive binding assays. […] (C) Solution competition assay. […] The line (at 430 s) indicates the response used for calculating the IC50. […] (Irregular responses after 500 s are due to washing the chips after analyte dissociation). Color reproductions are available from the patentees on request.
The baseline response (control channel) was subtracted to obtain the absolute binding response.
The source holds these as a separate data set.

Where two headings read alike, the source gives them in different places.

T1 sequence (P10415 other isoform, or with tags, fused parts or gaps mutant limits assumed): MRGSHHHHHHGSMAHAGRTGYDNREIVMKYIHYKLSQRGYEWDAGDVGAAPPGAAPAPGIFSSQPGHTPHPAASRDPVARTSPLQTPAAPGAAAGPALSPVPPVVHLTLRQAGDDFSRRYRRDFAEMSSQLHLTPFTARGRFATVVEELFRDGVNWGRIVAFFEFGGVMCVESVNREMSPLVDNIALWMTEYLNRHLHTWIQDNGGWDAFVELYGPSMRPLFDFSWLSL
T2 sequence (Q07817 other isoform, or with tags, fused parts or gaps mutant limits assumed): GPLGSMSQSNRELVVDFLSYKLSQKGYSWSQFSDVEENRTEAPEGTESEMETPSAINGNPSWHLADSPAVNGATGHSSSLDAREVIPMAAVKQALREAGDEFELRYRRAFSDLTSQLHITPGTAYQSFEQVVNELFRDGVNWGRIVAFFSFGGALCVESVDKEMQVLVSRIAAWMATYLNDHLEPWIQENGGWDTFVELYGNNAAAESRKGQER
T4 sequence (P97287 other isoform, or with tags, fused parts or gaps): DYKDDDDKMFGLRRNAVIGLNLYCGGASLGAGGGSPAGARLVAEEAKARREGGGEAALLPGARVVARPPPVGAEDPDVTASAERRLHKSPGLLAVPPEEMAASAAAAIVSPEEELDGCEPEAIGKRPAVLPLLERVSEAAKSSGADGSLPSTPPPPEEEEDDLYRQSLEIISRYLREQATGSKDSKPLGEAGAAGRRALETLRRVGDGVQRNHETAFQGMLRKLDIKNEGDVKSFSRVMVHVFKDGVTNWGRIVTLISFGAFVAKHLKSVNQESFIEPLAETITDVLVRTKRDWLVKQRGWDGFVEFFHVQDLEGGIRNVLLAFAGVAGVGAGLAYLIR
T5 sequence (P10415 other isoform, or with tags, fused parts or gaps): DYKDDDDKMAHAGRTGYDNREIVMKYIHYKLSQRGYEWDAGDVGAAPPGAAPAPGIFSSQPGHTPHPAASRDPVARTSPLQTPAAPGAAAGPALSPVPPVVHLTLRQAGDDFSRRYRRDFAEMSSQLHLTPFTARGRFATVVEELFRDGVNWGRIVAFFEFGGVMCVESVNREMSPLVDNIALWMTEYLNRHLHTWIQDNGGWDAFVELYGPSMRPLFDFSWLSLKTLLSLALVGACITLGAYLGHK
T6 sequence (Q07817 other isoform, or with tags, fused parts or gaps): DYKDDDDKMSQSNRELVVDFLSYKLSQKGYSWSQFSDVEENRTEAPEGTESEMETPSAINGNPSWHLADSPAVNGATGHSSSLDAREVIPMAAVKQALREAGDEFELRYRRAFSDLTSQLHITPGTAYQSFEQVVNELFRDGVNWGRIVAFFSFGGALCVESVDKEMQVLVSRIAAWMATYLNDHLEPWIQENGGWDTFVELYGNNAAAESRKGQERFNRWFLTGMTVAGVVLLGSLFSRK

B1: Hrk (26-51) BH3 peptide, human (peptide)
peptide: not shown
notes: also called HrkBH3
Regarding B1, the figures for the IC50 (in the experiment with human Bcl-2 ΔC22 [1]; with human Bcl-xL ΔC24 [2]; in [3]) were 320 nM, 3.7 nM and 49 nM, respectively.

B2: m Noxa1 (16-41) BH3 peptide (peptide)
peptide: RAELPPEFAAQLRKIGDKVYCTWSAP
notes: also called mouse Noxa BH3 peptide 1
On to B2, for which the binding result (with human Bcl-2 ΔC22 [4]; with human Bcl-xL ΔC24 [5]; in experiment [6]) was “no binding” each time.

B3: m Bmf (128-151) BH3 peptide (peptide)
peptide: HRAEVQIARKLQCIADQFHRLHTQ
notes: also called BmfBH3
B3: the IC50 with human Bcl-2 ΔC22 [1] is 3 nM; with human Bcl-xL ΔC24 [2], 9.7 nM; in experiment [3], 9.8 nM.

B4: HA-tagged full-length mouse Bad (other)
chain: YPYDVPDYAMGTPKQPSLAPAHALGLRKSDPGIRSLGSDAGGRRWRPAAQSMFQIPEFEPSEQEDASATDRGLGPSLTEDQPGPYLAPGLLGSNIHQQGRAATNSHHGGAGAMETRSRHSSYPAGTEEDEGMEEELSPFRGRSRSAPPNLWAAQRYGRELRRMSDEFEGSFKGLPRPKSAGTATQMRQSAGWTRIIQSWWDRNLGKGGSTPSQ
notes: whole, on cells; also called HA-Bad; Bad (in cells)
On to B4, for which the binding result in experiment [7] was “no binding”.

B5: m Noxa2 (68-93) BH3 peptide (peptide)
peptide: PADLKDECAQLRRIGDKVNLRQKLLN
notes: also called mNoxa B; mouse Noxa BH3 peptide 2
Turning to B5, the binding result (in the experiment with human Bcl-2 ΔC22 [4]; with human Bcl-xL ΔC24 [5]; in experiment [6]) was “no binding” each time.

B6: Noxa (18-43) BH3 peptide, human (peptide)
peptide: PAELEVECATQLRRFGDKLNFRQKLL
notes: also called NoxaBH3; wt NoxaBH3
For B6, the binding result with human Bcl-xL ΔC24 [8] is given as “no binding”. The IC50 (with human Bcl-xL ΔC24 [9]; in the experiment with human Bcl-2 ΔC22 [1]; in the experiment with human Bcl-xL ΔC24 [2]; in [3]) was greater than 100000 nM throughout.

B7: Noxa (18-43) mt1 (peptide)
peptide: PAELEVECATQLRRFGDELNFRQKLL
notes: also called Noxa m1; K35E
Consider B7, for which the “fold increase of binding against wt NoxaBH3” value with human Bcl-xL ΔC24 [10] was greater than 20 fold. Further, the “fold tighter than the wild-type peptide” value with human Bcl-xL ΔC24 [11] is no less than 17 fold. Also, the figures for the IC50 in the experiment with human Bcl-xL ΔC24 [9] and with human Bcl-2 ΔC22 [12] were 5800 nM and greater than 100000 nM, respectively. In addition, in [13], the binding result is on record as “binds”.

B8: Noxa (18-43) mt2 (peptide)
peptide: PAELEVECATQLRRIGDKLNFRQKLL
notes: also called Noxa m2; F32I
Consider B8, for which, in the experiment with human Bcl-xL ΔC24 [10], the “fold increase of binding against wt NoxaBH3” value is greater than 100 fold. Moreover, in the experiment with human Bcl-xL ΔC24 [11], the “fold tighter than wild type” value is no less than 90 fold. Also, the results for the IC50 with human Bcl-xL ΔC24 [9] and with human Bcl-2 ΔC22 [12] were 1100 nM and greater than 100000 nM, respectively. Further, the binding result in [13] is given as “binds”.

B9: Noxa (18-43) mt3 (peptide)
peptide: PAELEVECATQLRRIGDELNFRQKLL
notes: also called Noxa m3 (peptide); double mutant K35E F32I
Regarding B9, the results for the IC50 (in the experiment with human Bcl-xL ΔC24 [5]; in experiment [14]; with human Bcl-xL ΔC24 [9]) were 100 nM, 410 nM and 110 nM, respectively. Moreover, the binding result with human Bcl-2 ΔC22 [12] is “binds”.

B10: HA-tagged full-length mouse Noxa (other)
chain: YPYDVPDYAMPGRKARRNAPVNPTRAELPPEFAAQLRKIGDKVYCTWSAPDITVVLAQMPGKSQKSRMRSPSPTRVPADLKDECAQLRRIGDKVNLRQKLLNLISKLFNLVT
notes: whole, on cells; also called HA-Noxa; Noxa (full-length mouse Noxa bearing two BH3s)
For B10, the binding result in experiment [15] and in experiment [16] was “no binding” throughout.

B11: Bik (51-75) BH3 peptide, human (peptide)
peptide: MEGSDALALRLACIGDEMDVSLRAP
notes: also called BikBH3; hBik
In the case of B11, in the experiment with human Bcl-xL ΔC24 [17], the “IC50 (read off the curve)” value is roughly 40 nM. Further, the IC50 in the experiment with human Bcl-xL ΔC24 [2] turned out to be 43 nM; in [3], 12 nM.

B12: Bid (81-104) BH3 peptide, human (peptide)
peptide: DIIRNIARHLAQVGDSMDRSIPPG
notes: also called BidBH3
B12: the results for the IC50 (with human Bcl-2 ΔC22 [1]; with human Bcl-xL ΔC24 [2]; in experiment [3]) were 6800 nM, 82 nM and 40 nM, respectively.

B13: Bad (103-128) BH3 peptide, human (peptide)
peptide: NLWAAQRYGRELRRMSDEFVDSFKKG
notes: also called BadBH3
With B13, the IC50 with human Bcl-2 ΔC22 [1] is 16 nM; with human Bcl-xL ΔC24 [2], 5.3 nM; in [3], 30 nM.
